This is an account of results in US9540654B2, “Synthetic brassica-derived chloroplast transit peptides” (Dow AgroSciences LLC, priority 2012, dated 2017).

Test [1] concerns chloroplasts of the maize protoplast. As to the kind of experiment: Maize protoplast transient assay, microscopy of TraP12-YFP. It is filed as cell-based, Zea mays var. B104. Particulars: maize protoplasts, 12 hours after transfection. The text has this: The Trap12 chimeric chloroplast transit peptide-encoding polynucleotide sequence (SEQ ID NO:5) and the linker sequence (SEQ ID NO:10) were cloned upstream of the yellow fluorescent protein gene and incorporated into construct for testing via the maize protoplast transient in planta assay. The resulting construct contained the following plant transcription unit (PTU). The first PTU was comprised of the Zea mays Ubiquitin 1 promoter (ZmUbi1 promoter; Christensen, A., Sharrock R., and Quail P., (1992) Maize polyubiquitin genes: structure, thermal perturbation of expression and transcript splicing, and promoter activity following transfer to protoplasts by electroporation, Plant Molecular Biology, 18:675-689), Trap yellow fluorescent protein fusion gene (TraP12-YFP; US Patent App. 2007/0298412), and Zea mays Peroxidase 5 3′ untranslated region (ZmPer5 3′UTR; U.S. Pat. No. 6,384,207). The construct was confirmed via restriction enzyme digestion and sequencing.
Seed of Zea mays var. B104 were surface sterilized by shaking vigorously in 50% Clorox (3% sodium hypochlorite), containing 2-3 drops of Tween 20, for about 20 minutes. […]
Transfection of 100 to 500 μl of protoplasts (1-5×10^5) was completed by adding the protoplasts to a 2 ml microfuge tube containing about 40 μg of plasmid DNA (pDAB106597), at room temperature. […] Fluorescence of YFP was viewed by microscopy after 12 hours of incubation. […]

Test [2] has as its system Cry1Ac, Cry1Ca, Cry1F proteins. In words: Protein expression of stacked TraP12 cry1Ac, cry1Ca, cry1F in Arabidopsis (Western blotting, ELISA). Details: species or system Arabidopsis thaliana. The text has this:
The TraP12 chimeric transit peptide was fused to the 5′ end of cry1Ac, cry1Ca, and cry1F gene sequences which were stacked in multi PTU plasmid constructs to determine whether the TraP12 chimeric transit peptide enhanced or reduced expression of the proteins within Arabidopsis.
The constructs listed in Table 35 were assembled using art recognized methods. The constructs were subsequently transformed into Arabidopsis thaliana using the Agrobacterium mediated transformation protocol previously described. Transgenic Arabidopsis plants were obtained and protein expression was determined via Western blotting and ELISA assays.
On the technique in general: Immunoblotting shows a protein as a band on a membrane.

Test [3] relates to chloroplasts of the tobacco leaf tissue. In words: Tobacco transient assay, confocal microscopy of TraP-YFP. It is filed as cell-based, Nicotiana benthamiana. The conditions noted are these: Agrobacterium-infiltrated tobacco leaves. The text has this: The Trap12 and TraP13 chimeric chloroplast transit peptide sequences were initially tested via a transient in planta assay. Polynucleotide sequences which encode the Trap12 (SEQ ID NO:5) and TraP13 (SEQ ID NO:7) chimeric chloroplast transit peptide sequences were synthesized. A linker sequence (SEQ ID NO:10) was incorporated between the TraP sequence and the yfp coding sequence. The resulting constructs contained two plant transcription units (PTU). The first PTU was comprised of the Arabidopsis thaliana Ubiquitin 10 promoter (AtUbi10 promoter; Callis, et al., (1990) J. Biol. Chem., 265: 12486-12493), Trap yellow fluorescent protein fusion gene (TraP-YFP; US Patent App. 2007/0298412), and Agrobacterium tumefaciens ORF 23 3′ untranslated region (AtuORF23 3′UTR; U.S. Pat. No. 5,428,147). […]
Agrobacterium-infiltrated tobacco leaves were severed from the plant, and placed into a petri-dish with water to prevent dehydration. The infiltrated tobacco leaves were observed under blue light excitation with long-pass filter glasses held in place using a Dark Reader Hand Lamp™ (Clare Chemical Research Co.; Dolores, Colo.) to identify undamaged areas of the leaf that were successfully expressing the YFP reporter proteins. […]

B1: TraP12: chimeric chloroplast transit peptide SEQ ID NO:6, N-terminus from Brassica napus, C-terminus from Arabidopsis thaliana EPSPS (protein)
chain: MAQSSRICHGVQNPCVIISNLSKSNQNKSPFSVSLKTHQHPRAYPISSSWGLKKSGMTLIGSELRPLKVMSSVS
modifications: TraP12 chloroplast transit peptide
B1: the “localization of YFP fluorescent protein (microscopy imaging)” value in test [1] is reported as “accumulated within the chloroplasts”. Also, the “translocation of expressed proteins (Western blots)” value in test [2] is “directed the expressed proteins into the chloroplasts”. For the same molecule, in test [3], the “localization of YFP fluorescence signal (microscopy imaging)” value is listed as “accumulated within the chloroplasts”.
